B1: EEHEE_rd4_0469 (parent)
chain: ITIHVNGVTYHFDNPEEAEKFAQKMAKTYQLKMEIHNGEFHME

Variants of: B1
Assay: folding stability dG (cDNA display proteolysis); higher = more stable
Conditions: PBS, room temperature

Folding stability dG [kcal/mol]: each site, then its substitutions
H41: A 0.623, C 1.72, D 0.697, E 0.697, F 1.55, G 0.628, I 1.08, K 0.756, L 0.929, M 0.892, N 0.659, P 0.588, Q 0.682, R 0.848, S 0.86, T 0.857, V 1.11, W 1.57, Y 1.69
M42: A 0.838, D 0.727, E 0.615, F 1.24, G 0.673, H 0.709, I 0.961, K 0.711, L 1.3, N 0.637, P 0.756, Q 0.661, R 0.687, S 0.715, T 0.657, V 0.797, W 0.913, Y 1.02
E43: A 1.2, C 2.31, D 0.889, F 2.01, G 1.14, H 1.46, I 2.02, K 1.5, L 1.61, M 1.69, N 1.17, P 0.817, Q 1.21, R 1.56, S 1.34, T 1.72, V 2.36, W 1.82, Y 1.94
